From the domain aggregation screens of Martell et al. (2025)

Assay: soluble fraction after stress (log2 fold change); higher = more stays soluble; pooled small domains, quantitative proteomics
Conditions: stress: 50 degC
How it was run: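 Custom libraries of small protein domains were pooled and measured in a high-throughput format, with quantitative proteomics as the read-out. Each library was stressed at 50°C. The value is the log2 fold change in the amount of each protein that stays soluble after stress, used as a measure of aggregation propensity; higher values mean more of the protein stays soluble.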

Sequence	soluble fraction (log2)
HMQYALEDDLDSAIKLLTGKGLSGTVAWGWSDTYINVGKKSYSMEFIAKMLLRLGEGSRVTIQVDPA	-4.68
HMQLTDLSALEAIIKEVLAANPKSVEDYKSGKEKAFGSLVGQAMKATKGKANPETVNSLLRKNLN	0.519
HMSEEAMVSNFRQQEILELARKDGKVTVDGLAELYDVTVQTIRRDLSDLADSGRLKRVHGGAVVPS	0.262
HMSFRYLHVKRQLMSLIGTMNAHERLPSRTDLSETFQVARTTIERAISELIGEGWLYARDGSGTYVAER	-1.66
HMPQLSNEEQKIVDALEGSDGKQINLITVETNIPMARLMSVLFEMEMRGIVKSLNGARYKLN	-0.163
HMGHKTLTVELQEKIENLPQTLDKYNLTLGNNKMSVDYTYSVKEKQTGITNLLQDLKEHKFDIVYLVGQDN	0.251
HMTSISMDEKVVLGWHQVTTGAANSGMDKVVSNTSGLNVISPTWFKLSDNKGNYISIASKDYVDAAHKKGL	-0.232
HMSELDSYIGARLRMRRLMLGMSQEALGEKLSLTFQQIQKYEKGTNRVSASRLYELAQVLDVPVQFFFDGA	-2.93
HMKIDANTFTSIEKQLFVLLSKTPTPMGSIFVALAKEDKEAVWEVIHFLEAENRLIMNEDGTIQL	-1.39
HMVNGTPADPYDVLGVESSASPEELRAAWQTLVRQNHPDQLMARGVPLEAVKLAEARLVAINQAWDDLTK	0.0363
HMLPKTVTLIDPVSGVAKTVTWVPALTLYSARRKAGLNRVPNTATIDRGGRELTGKRGSTLQPGDVVRW	-0.425
HMSTVELPVQINGKVRGRITVPANAGQEDVKQAALADSKVQRYIEGASIRKVIVVPRKLVNIVV	0.13
HMRDLLPHFQRELQFLQTHRNEFAAAYPELGGRLATASDLLDDPHVERMVQSFALLAARVHKRLDDDF	0.206
HMDDATDVPYQEFRTQVTSGQVEIAQFNNNTGKISFQSTSGEKFETSGPLELSSDDERLFLENIEDFKFFT	-0.0161
HMGQQPPVTEIYKNHDGNKDGLLEAGEVTGSRYARQFPRWDVNGDQKVSPQEVIAFRKRFGIAADGTLL	-0.0225
HMTVSADQTAADAVIKLINAIGTVSENSGSAISAARSGYDALTDTQKKLVTNYNKLTQAEQVFSSLPS	0.203
HMDDDDPDQEIAQYYEKLRAMNPDEETKQKLSDEINKLSKMMYSSQEAMVSRNYLDTVFSLPWHQF	-0.0959
HMETYNLDVGDSAVLQYQNVSRISVGNPDVLDAIPLDKSQILLTGKATGGAALIVWDSKGMHMEKVMVHPA	-0.156
HMDRDPAEAGYDDGYLSGNTDGMNNDERATYDESSQYPTPDERQSYAAAYRRGYAAGFADGRKQAV	0.134
HMAKRQATIVYEGTNVRSGPSTSSAIVKRTGKGESYPIVSTKGDWYEIKLSNGDSAYVASWVVQTVD	-0.328
HMDMAENEEYKVIMGQAQQLAEQFFPADDNTRRIMLGQLKLENYSLYLLTKQILDEATKGQAAAAN	0.0229
HMNNLPDFIKQLRKENNLTQEYVASEIGVSRPTYEQIEKGKRELTISEAEKLAKIFNIPLENFLQGKKGV	0.184
HMGNFQNIFRKLRTSSNLTQNAIAEKLGISRSTIGMYETGAREPDFETLEKIADYFNVDTDFLLGRTNQTT	-0.106
HMTAQLSITLNGETRRAAAGSIADLVRSLELDPAKVAVERNGLIVPRSTLAEVALGDGDVLEIVHFV	-0.186
HMKQTDQELAEMLRFRAAQRGLLMSDEVVNYVMTRVERSAKSLIMLLDRIDRAALAQARPVTIPLINEL	-0.499
HMAVEQLKSQIGGFLKANREQSFSAQNMADGLRMNSAAGYQDVVNAMNALVRDGEAVEKDGQFSYNVN	0.15
HMQISDESQLREVVSKILEENEQSVIDYKNGKTRAMGFIIGQVMKATRGKANPQLVNEIVKEMLDE	0.097
HMNILKKDKRLWDENNLNKPLLFELLENYDKEIFELLLTDKDIKAKFFVQAGESYVFKYDDFRFAIEQN	-0.702
HMRTLGADLRALRKARGLTLAGMADNMGKSVGWMSQIERDISEPSISDLRALAKLLDVSVSSLFR	-2.23
HMDTLHGRILEEFSRKIVDGTWPPGFSLPKETELADQYGVSRMTMNKVLTRLASDGFVIRRKRSGTVVAQP	-1.21
